Data on three molecules can be found in article PMC6422896, “CrgA Protein Represses AlkB2 Monooxygenase and Regulates the Degradation of Medium-to-Long-Chain n-Alkanes in Pseudomonas aeruginosa SJTD-1” (Frontiers in Microbiology, 2019).

This data set concerns the target T1, CrgA (Pseudomonas aeruginosa SJTD-1, UniProt Q9I4D7 1-304).
T1 sequence: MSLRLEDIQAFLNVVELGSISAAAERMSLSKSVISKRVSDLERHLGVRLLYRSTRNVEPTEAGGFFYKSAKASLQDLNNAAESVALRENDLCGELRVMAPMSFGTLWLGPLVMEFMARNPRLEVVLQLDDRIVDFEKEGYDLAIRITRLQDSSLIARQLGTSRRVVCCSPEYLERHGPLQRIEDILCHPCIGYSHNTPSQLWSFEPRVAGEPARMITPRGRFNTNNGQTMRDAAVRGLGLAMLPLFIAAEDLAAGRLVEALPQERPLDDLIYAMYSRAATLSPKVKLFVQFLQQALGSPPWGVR
Briefly: EMSA; EMSA: 20 mM Tris-HCl, 50 mM NaCl, 1 mM DTT, 0.1 mM EDTA, pH 7.5, 37 C 30 min, 4 pmol DNA in 20 uL, 8% native PAGE; footprinting at 25 C. The note with it: protein: recombinant; tags: His-tag (pET28a, Ni-NTA; NdeI/BamHI cloning, N-terminal tag likely); chain copies: 4; label: 5'-FAM on strand 2; blunt. In general terms: Mobility shift assays separate free from complexed probe on a gel.

B1: alkB2-b2 (dsDNA)
DNA 1: AGGACAATTGTCAGACAATCTAACAAGCGGCGGACAGAACGAAGATAAATACGAGGACTTCCC
DNA 2: GGGAAGTCCTCGTATTTATCTTCGTTCTGTCCGCCGCTTGTTAGATTGTCTGACAATTGTCCT
With B1, the binding result is reported as “binds”.

B2: alkB2-b1 (dsDNA)
DNA 1: AGGACAATTGTCAGACAATCTAACAGGGATGGGGCAGGCCGGCCAAGGGAGATAAATACGAGGACTTCCC
DNA 2: GGGAAGTCCTCGTATTTATCTCCCTTGGCCGGCCTGCCCCATCCCTGTTAGATTGTCTGACAATTGTCCT
On to B2, for which the binding result is “binds”.

B3: alkB2-U46 (dsDNA)
DNA 1: AGGACAATTGTCAGACAATCTAACAAGATAAATACGAGGACTTCCC
DNA 2: GGGAAGTCCTCGTATTTATCTTGTTAGATTGTCTGACAATTGTCCT
For B3, the binding result is “no binding”.
